Experimental findings from patent publication EP2182008A2 are described below.

Test [1] deals with soluble ICAM-R/IgG1 fusion protein (UniProt P32942). Put plainly: ELISA, soluble integrin in supernatant on immobilized ICAM/Ig. For orientation: ELISA stands for enzyme-linked immunosorbent assay.
For test [2], the target named is LFA-1 leucine zipper fusion protein (UniProt P20701). Put plainly: ELISA, plate format; sentence unclear.
The target of test [3] is immobilized CD11b/CD18 (human) (UniProt P05107). Put plainly: ELISA, plate format; sentence unclear.
Test [4] concerns the target recombinant VCAM-1 (commercial preparation, R & D Systems) (UniProt P19320). As to the kind of experiment: cell-based or functional assay.
For test [5], the target named is mutant two domain VCAM-1 fused to human immunoglobulin Fc (substitution at residue 40) (human) (UniProt P19320). Put plainly: adhesion of transfected CHO cells to immobilized CAM, crystal violet, A570.
The target in test [6] is T1, VCAM-1/IgG1 fusion protein (seven extracellular immunoglobulin-like domains) (UniProt P19320).
T1 sequence (looked up): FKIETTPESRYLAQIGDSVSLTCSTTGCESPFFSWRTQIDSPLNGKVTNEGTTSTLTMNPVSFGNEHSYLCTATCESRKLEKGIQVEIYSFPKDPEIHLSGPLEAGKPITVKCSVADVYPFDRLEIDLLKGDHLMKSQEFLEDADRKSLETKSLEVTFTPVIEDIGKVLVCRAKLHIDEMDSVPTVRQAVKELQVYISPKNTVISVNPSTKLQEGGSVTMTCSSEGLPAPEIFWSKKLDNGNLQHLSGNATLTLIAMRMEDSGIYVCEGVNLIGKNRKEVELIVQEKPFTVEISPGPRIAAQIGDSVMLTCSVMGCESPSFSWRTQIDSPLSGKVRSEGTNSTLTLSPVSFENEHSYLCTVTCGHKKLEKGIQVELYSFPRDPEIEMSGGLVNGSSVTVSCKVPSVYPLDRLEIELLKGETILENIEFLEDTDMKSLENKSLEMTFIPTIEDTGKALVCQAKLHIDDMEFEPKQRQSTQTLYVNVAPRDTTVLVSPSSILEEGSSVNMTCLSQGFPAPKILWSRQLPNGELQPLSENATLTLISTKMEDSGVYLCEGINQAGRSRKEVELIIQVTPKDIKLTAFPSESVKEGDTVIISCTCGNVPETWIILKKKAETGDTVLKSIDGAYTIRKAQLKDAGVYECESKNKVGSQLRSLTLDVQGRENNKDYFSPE
As to the kind of experiment: ELISA, Iαd/IgG4 on immobilized CAM/IgG, detection with anti-IgG4 HP6023.

Sequence of human αd I domain/IgG4 fusion protein (P01861 other isoform, or with tags, fused parts or gaps): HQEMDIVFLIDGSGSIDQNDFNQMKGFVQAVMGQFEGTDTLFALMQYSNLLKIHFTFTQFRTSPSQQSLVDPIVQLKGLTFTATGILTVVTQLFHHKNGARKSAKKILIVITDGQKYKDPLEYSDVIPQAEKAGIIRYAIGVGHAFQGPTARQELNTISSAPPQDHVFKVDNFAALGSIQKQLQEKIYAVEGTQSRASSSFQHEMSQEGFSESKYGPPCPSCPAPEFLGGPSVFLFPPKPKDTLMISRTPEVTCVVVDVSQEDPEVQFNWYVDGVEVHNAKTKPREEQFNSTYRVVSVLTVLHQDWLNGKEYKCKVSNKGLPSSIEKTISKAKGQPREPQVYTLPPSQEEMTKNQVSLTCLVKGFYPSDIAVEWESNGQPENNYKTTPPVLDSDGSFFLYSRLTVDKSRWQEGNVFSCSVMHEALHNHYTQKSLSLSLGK
Sequence of soluble ICAM-R/IgG1 fusion protein (P32942 30-485 limits assumed): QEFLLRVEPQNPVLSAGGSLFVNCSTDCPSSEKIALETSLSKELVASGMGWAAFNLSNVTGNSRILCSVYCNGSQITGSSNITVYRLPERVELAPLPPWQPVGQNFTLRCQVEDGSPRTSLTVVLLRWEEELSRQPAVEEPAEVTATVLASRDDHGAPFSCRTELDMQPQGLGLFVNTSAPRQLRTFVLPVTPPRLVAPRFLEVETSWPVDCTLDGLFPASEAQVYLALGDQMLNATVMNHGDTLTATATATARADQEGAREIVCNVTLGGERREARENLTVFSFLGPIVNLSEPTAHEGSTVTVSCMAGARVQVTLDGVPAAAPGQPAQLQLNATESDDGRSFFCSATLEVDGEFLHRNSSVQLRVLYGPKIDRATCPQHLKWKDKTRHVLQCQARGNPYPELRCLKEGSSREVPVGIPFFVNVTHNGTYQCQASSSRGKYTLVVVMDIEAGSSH

In test [1], “soluble human αd/CD18 leucine zipper heterodimer (from UniProt P05107 23-700) (receptor)” yielded a fold over control well containing no antibody of 10 fold. The fold greater than background binding in test [2] turned out to be 5 fold; in test [3], 15 fold.
In the case of “native human αd/CD18 on human cells (from UniProt Q13349 18-1161; P05107 23-769) (receptor)”, in test [4], the binding rate of IL-5 cultured eosinophils to immobilized VCAM-1 was determined as 28.8%, the binding rate of IL-5 cultured eosinophils to immobilized VCAM-1 in the presence of a monoclonal antibody against α4 was 18.1% and the binding rate of IL-5 cultured eosinophils to immobilized VCAM-1 in the presence of an anti-CD18 monoclonal antibody is 17.1%.
In test [5], “human αd/CD18 expressed on transfected cells (from UniProt P05107 23-769) (receptor)” yielded a binding as percent of that with wild-type VCAM-1 of 50%.
As to “human αd I domain/IgG4 fusion protein (from UniProt P01861 99-327) (Fc fusion)”, in test [6], the fold higher than background was in the range of 7 to 10 fold.
